The record followed here is US20240000834A1, “RAS MUTANT EPITOPE PEPTIDE AND T CELL RECEPTOR RECOGNIZING RAS MUTANT” (SHANGHAI GENBASE BIOTECHNOLOGY CO., LTD., priority 2020, published 2024).

Assay [1] has as its target T1, RAS G12V mutant (KRAS G12V) peptide on HLA-DPB1*03:01 (human).
T1 peptide: TEYKLVVVGAVGV
Briefly: Jurkat-NFAT-Luc; B13 LCL + G12V peptide, 10 µg/ml, 10-fold dilutions, 5 conc.; Emax relative to WT 125%; full-length, on cells. The protocol: (§1) In the above table, those with a higher ratio of TCR Mut RLU/WT RLU were underlined, which were preferred TCR mutants. The Emax and EC50 (Functional Avidity) of these TCR mutants in recognition of the KRAS-G12V antigen peptide were further determined. B13 LCL cells were loaded with different concentrations of G12V antigen peptide (10 μg/ml, 10-fold dilution, 5 concentrations), and co-incubated with Jurkat-NFAT-Luc cells expressing the TCR mutants for 16-24 hours, the fluorescence signal expression was detected by adding ONE Glo Luciferase, and the results were shown in FIG. 8 and the table below.

In assay [2] the target is T1, RAS G12V mutant (KRAS G12V) peptide on …. The experiment in a line: Jurkat-NFAT-Luc; B13 LCL + G12V peptide, 10 µg/ml, 10-fold dilutions, 5 conc.; Emax relative to WT 192%; full-length, on cells. On the procedure:
as §1

For assay [3] the target is unchanged. Briefly: Jurkat-NFAT-Luc; B13 LCL + G12V peptide, 10 µg/ml, 10-fold dilutions, 5 conc.; Emax relative to WT 94%; full-length, on cells. On the procedure:
as §1

For assay [4] the target is unchanged. Briefly: Jurkat-NFAT-Luc; SW620-DPB + G12V peptide, 10 µg/ml, 10-fold dilutions, 5 conc.; Emax relative to WT 134%; full-length, on cells. The protocol: (§2) In the above table, those with TCR Mut RLU/WT RLU ratio ≥80% were underlined, which were the preferred TCR mutants. The Emax and EC50 (Functional Avidity) of the TCR mutants to recognize the KRAS-G12V antigen peptide were further determined. SW620-DPB cells (SW620 expressing HLA-DPB1*03:01) were loaded with different concentrations of G12V antigen peptide (10 μg/ml, 10-fold dilution, 5 concentrations), and co-incubated with Jurkat-NFAT-Luc cells expressing the TCR mutants for 16-24 hours, and the fluorescence signal expression was detected by adding ONE Glo Luciferase.

Assay [5] has the same target. Briefly: Jurkat-NFAT-Luc + B13 LCL loaded with T15; vs wild-type B13.14.1; mTCRβ 95.20%; full-length, on cells. The protocol:
(§3) The TCR mutant (MHC-II binding region) lentiviral vector was transduced into the Jurkat-NFAT-Luc cell line, and B13 LCL cells loaded with KRAS-G12V antigen (RAS G12V-T15 peptide, SEQ ID NO: 5) were used as the antigen-presenting cells. 2×10⁴ TCR-T and 2×10⁴ antigen-loaded B13 LCL cells were co-cultured for 16-24 hours, the fluorescence signal expression was detected by adding ONE Glo Luciferase, and TCR Mut RLU/WT RLU (ratio of RLU signal value of TCR mutant to RLU signal value of wild-type B13.14.1TCR) was calculated.

Assay [6] shares this target. The experiment in a line: Jurkat-NFAT-Luc; SW620-DPB + G12V peptide, 10 µg/ml, 10-fold dilutions, 5 conc.; Emax relative to WT 111%; full-length, on cells. The protocol: as §2
For assay [7] the target is unchanged. Briefly: Jurkat-NFAT-Luc; SW620-DPB + G12V peptide, 10 µg/ml, 10-fold dilutions, 5 conc.; Emax relative to WT 82%; full-length, on cells. The protocol:
as §2

Assay [8] has the same target. The experiment in a line: Jurkat-NFAT-Luc + B13 LCL loaded with T15; vs wild-type B13.14.1; mTCRβ 94.90%; full-length, on cells. The protocol:
as §3

Assay [9] has the same target. Briefly: Jurkat-NFAT-Luc; SW620-DPB + G12V peptide, 10 µg/ml, 10-fold dilutions, 5 conc.; Emax relative to WT 106%; full-length, on cells. On the procedure: as §2
The target is the same in assay [10]. The experiment in a line: Jurkat-NFAT-Luc; B13 LCL + G12V peptide, 10 µg/ml, 10-fold dilutions, 5 conc.; Emax relative to WT 256%; full-length, on cells. On the procedure:
as §1

The target is the same in assay [11]. Briefly: Jurkat-NFAT-Luc; SW620-DPB + G12V peptide, 10 µg/ml, 10-fold dilutions, 5 conc.; Emax relative to WT 97%; full-length, on cells. On the procedure:
as §2

For assay [12] the target is unchanged. Briefly: Jurkat-NFAT-Luc; SW620-DPB + G12V peptide, 10 µg/ml, 10-fold dilutions, 5 conc.; Emax relative to WT 131%; full-length, on cells. The protocol:
as §2

Assay [13] has the same target. The experiment in a line: Jurkat-NFAT-Luc; SW620-DPB + G12V peptide, 10 µg/ml, 10-fold dilutions, 5 conc.; Emax relative to WT 180%; full-length, on cells. The protocol: as §2
Assay [14] has the same target. Briefly: Jurkat-NFAT-Luc; SW620-DPB + G12V peptide, 10 µg/ml, 10-fold dilutions, 5 conc.; Emax relative to WT 78%; full-length, on cells. On the procedure:
as §2

Assay [15] shares this target. Briefly: Jurkat-NFAT-Luc + B13 LCL loaded with T15; vs wild-type B13.14.1; mTCRβ 89.00%; full-length, on cells. The protocol:
as §3

Positions count from the first letter of the chain named.

B1: B13.14.1 TCR mutant α98G-N (TCR, V domains shown)
Valpha: AQSVAQPEDQVNVAEGNPLTVKCTYSVSGNPYLFWYVQYPNRGLQFLLKYITGDNLVKGSYGFEAEFNKSQTSFHLKKPSALVSDSALYFCAVRDGRNGGNKLTFGTGTQLKVEL
Vbeta: DGGITQSPKYLFRKEGQNVTLSCEQNLNHDAMYWYRQDPGQGLRLIYYSQIVNDFQKGDIAEGYSVSREKKESFPLTVTSAQKNPTAFYLCASSPGQRDNSPLHFGNGTRLTVT
For B1, the EC50 of peptide in assay [1] is 0.255 µg/mL.

B2: B13.14.1 TCR mutant β97Q-S (TCR, V domains shown)
Valpha: B1 Valpha with N98G
Vbeta: B1 Vbeta with Q97S
Turning to B2, in assay [2], the EC50 of peptide is 0.123 µg/mL.

B3: B13.14.1 TCR mutant β95P-T (TCR, V domains shown)
Valpha: B1 Valpha with N98G
Vbeta: B1 Vbeta with P95T
Regarding B3, in [3], the EC50 of peptide is 0.325 µg/mL.

B4: B13.14.1 TCR mutant α51I-W (TCR, V domains shown)
Valpha: B1 Valpha with I51W, N98G
Vbeta: B1 Vbeta
In the case of B4, the EC50 of peptide in assay [4] amounted to 1.24 µg/mL. For the same molecule, the “TCR Mut RLU/WT RLU” value in [5] is 129%.

B5: B13.14.1 TCR mutant α52T-H (TCR, V domains shown)
Valpha: B1 Valpha with T52H, N98G
Vbeta: B1 Vbeta
On to B5, for which, in [6], the EC50 of peptide was 1.03 µg/mL.

B6: B13.14.1 TCR mutant α49K-Y (TCR, V domains shown)
Valpha: B1 Valpha with K49Y, N98G
Vbeta: B1 Vbeta
For the molecule B6, the EC50 of peptide in assay [7] stood at 0.96 µg/mL. Also, the “TCR Mut RLU/WT RLU” value in [8] amounted to 119%.

B7: B13.14.1 TCR mutant α49K-S (TCR, V domains shown)
Valpha: B1 Valpha with K49S, N98G
Vbeta: B1 Vbeta
As to B7, in assay [9], the EC50 of peptide is 1.21 µg/mL.

B8: B13.14.1 TCR mutant β95P-A (TCR, V domains shown)
Valpha: B1 Valpha with N98G
Vbeta: B1 Vbeta with P95A
With B8, the EC50 of peptide in assay [10] came out at 0.204 µg/mL.

B9: B13.14.1 TCR mutant β50Q-N (TCR, V domains shown)
Valpha: B1 Valpha with N98G
Vbeta: B1 Vbeta with Q50N
For B9, in assay [11], the EC50 of peptide amounted to 1.19 µg/mL.

B10: B13.14.1 TCR mutant α52T-A (TCR, V domains shown)
Valpha: B1 Valpha with T52A, N98G
Vbeta: B1 Vbeta
As to B10, the EC50 of peptide in assay [12] stood at 1.56 µg/mL.

B11: B13.14.1 TCR mutant β48Y-F (TCR, V domains shown)
Valpha: B1 Valpha with N98G
Vbeta: B1 Vbeta with Y48F
For the molecule B11, in assay [13], the EC50 of peptide came out at 9.51 µg/mL.

B12: B13.14.1 TCR mutant β50Q-T (TCR, V domains shown)
Valpha: B1 Valpha with N98G
Vbeta: B1 Vbeta with Q50T
For the molecule B12, in assay [14], the EC50 of peptide was 1.34 µg/mL. In [15], the “TCR Mut RLU/WT RLU” value was 101%.
